{"source": "patent US20190241648A1", "about": "(STATEN BIOTECHNOLOGY B V, published 2019)", "binders": {"B1": {"name": "anti-ApoC3 antibody 14C7 (antibody, V domains shown)", "VH": "QVQVQESGPGLVKPSQTLSLTCTVSGGSITTNSYYWSWIRQPPGKGLEWMGAIDYSGDTYYSPSLKSRTSISRDTSKNQFTLQLTSVTPEDTAVYYCVSRIPTGEYWGQGTQVTVSS", "VL": "QTVVTQEPSLSVSPGGTVTLTCGLNSGSVTSSNYPDWYQQTPGQAPRLLIYNTNSRHSGVPSRFSGSISGNKAALTITGAQPEDEADYYCALYMGSDSVVFGGGTHLTVL", "notes": "it was detected with goat anti-human IgG (Fc); also called mAb 14C7; llama antibody 14C7"}}, "test_in_all_cases": "peptide microarray", "key": {"ApoC3 peptide … F47K": {"biological_target": "T1, ApoC3 peptide … F47K (human, not fully specified (bridges); also: cyclic constrained)", "T1 peptide": "ARGWVTDGKSSLK", "excerpt": "(§1) Amino acids G41 and G46 were highly conserved; substitution of G41 by E, N or Q caused a decrease of spot intensities by ˜70% or higher, whereas exchange of G46 by N was hardly tolerated and resulting in 90% reduced spot intensities. […] Amino acid positions V43, D45 and K51 were also well conserved with a clear preference for the wild type amino acids and a certain tolerance particularly for conservative exchanges by Y, F and I (V43), A, E and K (D45) as well as by R (K51). […] Replacement of V43 by Y, however, increased spot intensity by two fold. Amino acid positions W42 and 48S were poorly conserved or even variable; both positions were susceptible for only a number of amino acid exchanges, and exchange by F, S and T (W42) or by E (S48) even caused a two- to three-fold increase of spot intensity. Amino acid positions A39 and R40 were variable.\n(§2) Pre: staining of one of the ApoC3 peptide microarrays was done with the secondary antibody goat anti-human IgG (Fe) DyLight680 (1:5000) and control antibody mouse monoclonal anti-HA (12CA5) DyLight800 (1:2000) to investigate background interactions of the secondary antibody with the antigen-derived peptides that could interfere with the main assays. Subsequent incubation of other ApoC3 peptide microarrays with antibody samples was followed by staining with secondary and control antibodies as well as read-out at scanning intensities of 7/7 (red/green). The additional HA peptides framing the peptide arrays were stained as internal quality control to confirm the assay quality and the peptide microarray integrity."}, "ApoC3 peptide … T44P": {"biological_target": "T2, ApoC3 peptide … T44P (human, not fully specified (bridges); also: cyclic constrained)", "T2 peptide": "ARGWVPDGFSSLK", "excerpt": "as §1, §2"}, "ApoC3 peptide … D45Q": {"biological_target": "T3, ApoC3 peptide … D45Q (human, cyclic constrained)", "T3 peptide": "ARGWVTQGFSSLK", "excerpt": "as §1, §2"}, "ApoC3 peptide … W42G": {"biological_target": "T4, ApoC3 peptide … W42G (human, not fully specified (bridges); also: cyclic constrained)", "T4 peptide": "ARGGVTDGFSSLK", "excerpt": "as §1, §2"}, "ApoC3 peptide … R40M": {"biological_target": "T5, ApoC3 peptide … R40M (human, not fully specified (bridges); also: cyclic constrained)", "T5 peptide": "AMGWVTDGFSSLK", "excerpt": "as §1, §2"}, "ApoC3 peptide … F47C": {"biological_target": "T6, ApoC3 peptide … F47C (human, not fully specified (bridges); also: cyclic constrained)", "T6 peptide": "ARGWVTDGCSSLK", "excerpt": "as §1, §2"}, "ApoC3 peptide … A39Y": {"biological_target": "T7, ApoC3 peptide … A39Y (human, not fully specified (bridges); also: cyclic constrained)", "T7 peptide": "YRGWVTDGFSSLK", "excerpt": "as §1, §2"}, "ApoC3 peptide … W42M": {"biological_target": "T8, ApoC3 peptide … W42M (human, not fully specified (bridges); also: cyclic constrained)", "T8 peptide": "ARGMVTDGFSSLK", "excerpt": "as §1, §2"}, "ApoC3 peptide … G46A": {"biological_target": "T9, ApoC3 peptide … G46A (human, also: cyclic constrained)", "T9 peptide": "ARGWVTDAFSSLK", "excerpt": "as §1, §2"}, "ApoC3 peptide … R40A": {"biological_target": "T10, ApoC3 peptide … R40A (human, not fully specified (bridges); also: cyclic constrained)", "T10 peptide": "AAGWVTDGFSSLK", "excerpt": "as §1, §2"}, "ApoC3 peptide … W42H": {"biological_target": "T11, ApoC3 peptide … W42H (human, not fully specified (bridges); also: cyclic constrained)", "T11 peptide": "ARGHVTDGFSSLK", "excerpt": "as §1, §2"}, "ApoC3 peptide … G46E": {"biological_target": "T12, ApoC3 peptide … G46E (human, not fully specified (bridges); also: cyclic constrained)", "T12 peptide": "ARGWVTDEFSSLK", "excerpt": "as §1, §2"}, "ApoC3 peptide … K51E": {"biological_target": "T13, ApoC3 peptide … K51E (human, thioether (positions not given here); also: cyclic constrained)", "T13 peptide": "ARGWVTDGFSSLE", "excerpt": "as §1, §2"}, "ApoC3 peptide … D45Y": {"biological_target": "T14, ApoC3 peptide … D45Y (human, not fully specified (bridges); also: cyclic constrained)", "T14 peptide": "ARGWVTYGFSSLK", "excerpt": "as §1, §2"}, "ApoC3 peptide … D45V": {"biological_target": "T15, ApoC3 peptide … D45V (human, cyclic constrained)", "T15 peptide": "ARGWVTVGFSSLK", "excerpt": "as §1, §2"}, "ApoC3 peptide … G46T": {"biological_target": "T16, ApoC3 peptide … G46T (human, thioether (positions not given here); also: cyclic constrained)", "T16 peptide": "ARGWVTDTFSSLK", "excerpt": "as §1, §2"}, "ApoC3 peptide … S49N": {"biological_target": "T17, ApoC3 peptide … S49N (human, cyclic constrained)", "T17 peptide": "ARGWVTDGFSNLK", "excerpt": "as §1, §2"}, "ApoC3 peptide … W42D": {"biological_target": "T18, ApoC3 peptide … W42D (human, not fully specified (bridges); also: cyclic constrained)", "T18 peptide": "ARGDVTDGFSSLK", "excerpt": "as §1, §2"}, "ApoC3 peptide … G41R": {"biological_target": "T19, ApoC3 peptide … G41R (human, also: cyclic constrained)", "T19 peptide": "ARRWVTDGFSSLK", "excerpt": "as §1, §2"}, "ApoC3 peptide … G41A": {"biological_target": "T20, ApoC3 peptide … G41A (human, also: cyclic constrained)", "T20 peptide": "ARAWVTDGFSSLK", "excerpt": "as §1, §2"}, "ApoC3 peptide … F47E": {"biological_target": "T21, ApoC3 peptide … F47E (human, not fully specified (bridges); also: cyclic constrained)", "T21 peptide": "ARGWVTDGESSLK", "excerpt": "as §1, §2"}, "ApoC3 peptide … G46P": {"biological_target": "T22, ApoC3 peptide … G46P (human, not fully specified (bridges); also: cyclic constrained)", "T22 peptide": "ARGWVTDPFSSLK", "excerpt": "as §1, §2"}, "ApoC3 peptide … S49Y": {"biological_target": "T23, ApoC3 peptide … S49Y (human, not fully specified (bridges); also: cyclic constrained)", "T23 peptide": "ARGWVTDGFSYLK", "excerpt": "as §1, §2"}, "ApoC3 peptide … R40V": {"biological_target": "T24, ApoC3 peptide … R40V (human, thioether (positions not given here); also: cyclic constrained)", "T24 peptide": "AVGWVTDGFSSLK", "excerpt": "as §1, §2"}, "ApoC3 peptide … L50S": {"biological_target": "T25, ApoC3 peptide … L50S (human, not fully specified (bridges); also: cyclic constrained)", "T25 peptide": "ARGWVTDGFSSSK", "excerpt": "as §1, §2"}, "ApoC3 peptide … R40S": {"biological_target": "T26, ApoC3 peptide … R40S (human, not fully specified (bridges); also: cyclic constrained)", "T26 peptide": "ASGWVTDGFSSLK", "excerpt": "as §1, §2"}, "ApoC3 peptide … G41C": {"biological_target": "T27, ApoC3 peptide … G41C (human, also: cyclic constrained)", "T27 peptide": "ARCWVTDGFSSLK", "excerpt": "as §1, §2"}, "ApoC3 peptide … G46S": {"biological_target": "T28, ApoC3 peptide … G46S (human, thioether (positions not given here); also: cyclic constrained)", "T28 peptide": "ARGWVTDSFSSLK", "excerpt": "as §1, §2"}, "ApoC3 peptide … D45H": {"biological_target": "T29, ApoC3 peptide … D45H (human, cyclic constrained)", "T29 peptide": "ARGWVTHGFSSLK", "excerpt": "as §1, §2"}, "ApoC3 peptide … T44S": {"biological_target": "T30, ApoC3 peptide … T44S (human, not fully specified (bridges); also: cyclic constrained)", "T30 peptide": "ARGWVSDGFSSLK", "excerpt": "as §1, §2"}}, "note": "Ends that are not written are not given here."}
{"binder": "B1", "values": [{"measurement": "% of binding to wild-type peptide", "setting": "ApoC3 peptide … F47K", "result": 0.12, "unit": "%"}, {"measurement": "% of binding to wild-type peptide", "setting": "ApoC3 peptide … T44P", "result": 0, "unit": "%"}, {"measurement": "% of binding to wild-type peptide", "setting": "ApoC3 peptide … D45Q", "result": 21, "unit": "%"}, {"measurement": "% of binding to wild-type peptide", "setting": "ApoC3 peptide … W42G", "result": 107, "unit": "%"}, {"measurement": "% of binding to wild-type peptide", "setting": "ApoC3 peptide … R40M", "result": 69.6, "unit": "%"}, {"measurement": "% of binding to wild-type peptide", "setting": "ApoC3 peptide … F47C", "result": 0, "unit": "%"}, {"measurement": "% of binding to wild-type peptide", "setting": "ApoC3 peptide … A39Y", "result": 40.5, "unit": "%"}, {"measurement": "% of binding to wild-type peptide", "setting": "ApoC3 peptide … W42M", "result": 79.4, "unit": "%"}, {"measurement": "% of binding to wild-type peptide", "setting": "ApoC3 peptide … G46A", "result": 0, "unit": "%"}, {"measurement": "% of binding to wild-type peptide", "setting": "ApoC3 peptide … R40A", "result": 50.1, "unit": "%"}, {"measurement": "% of binding to wild-type peptide", "setting": "ApoC3 peptide … W42H", "result": 48.6, "unit": "%"}, {"measurement": "% of binding to wild-type peptide", "setting": "ApoC3 peptide … G46E", "result": 0, "unit": "%"}, {"measurement": "% of binding to wild-type peptide", "setting": "ApoC3 peptide … K51E", "result": 4.71, "unit": "%"}, {"measurement": "% of binding to wild-type peptide", "setting": "ApoC3 peptide … D45Y", "result": 0, "unit": "%"}, {"measurement": "% of binding to wild-type peptide", "setting": "ApoC3 peptide … D45V", "result": 1.21, "unit": "%"}, {"measurement": "% of binding to wild-type peptide", "setting": "ApoC3 peptide … G46T", "result": 0, "unit": "%"}, {"measurement": "% of binding to wild-type peptide", "setting": "ApoC3 peptide … S49N", "result": 0, "unit": "%"}, {"measurement": "% of binding to wild-type peptide", "setting": "ApoC3 peptide … W42D", "result": 108, "unit": "%"}, {"measurement": "% of binding to wild-type peptide", "setting": "ApoC3 peptide … G41R", "result": 19.4, "unit": "%"}, {"measurement": "% of binding to wild-type peptide", "setting": "ApoC3 peptide … G41A", "result": 7.01, "unit": "%"}, {"measurement": "% of binding to wild-type peptide", "setting": "ApoC3 peptide … F47E", "result": 0, "unit": "%"}, {"measurement": "% of binding to wild-type peptide", "setting": "ApoC3 peptide … G46P", "result": 0, "unit": "%"}, {"measurement": "% of binding to wild-type peptide", "setting": "ApoC3 peptide … S49Y", "result": 0, "unit": "%"}, {"measurement": "% of binding to wild-type peptide", "setting": "ApoC3 peptide … R40V", "result": 57.5, "unit": "%"}, {"measurement": "% of binding to wild-type peptide", "setting": "ApoC3 peptide … L50S", "result": 0, "unit": "%"}, {"measurement": "% of binding to wild-type peptide", "setting": "ApoC3 peptide … R40S", "result": 54.7, "unit": "%"}, {"measurement": "% of binding to wild-type peptide", "setting": "ApoC3 peptide … G41C", "result": 14.8, "unit": "%"}, {"measurement": "% of binding to wild-type peptide", "setting": "ApoC3 peptide … G46S", "result": 0, "unit": "%"}, {"measurement": "% of binding to wild-type peptide", "setting": "ApoC3 peptide … D45H", "result": 1.81, "unit": "%"}, {"measurement": "% of binding to wild-type peptide", "setting": "ApoC3 peptide … T44S", "result": 1.12, "unit": "%"}]}
